Measurements published in US20230212587A1, “Mutant Hydroxyphenylpyruvate Dioxygenase Polypeptide, Encoding Gene Thereof and Use Therefor” (Beijing Dabeinong Biotechnology Co., Ltd., priority 2019, published 2023).

Tested on: Arabidopsis thaliana T1 plants
Experiment: Topramezone tolerance of transgenic Arabidopsis thaliana T1 plants (pesticide damage grade by bleached leaf area, score, resistance evaluation)
Type: in vivo
Conditions: HPPDs from different species, 7 DAT; for Classification and statistics of pesticide damage grade Grade 0 / Classification and statistics of pesticide damage grade Grade 1 / Classification and statistics of pesticide damage grade Grade 2 / Classification and statistics of pesticide damage grade Grade 3: number of plants (of 16) in this grade; for Scores: score for pesticide damage 0-100
Summary of the method: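 Eighteen days after sowing, wild-type and HPPD-transgenic T1 Arabidopsis receive a topramezone spray at 1×, 2× or 4× field rate (25–100 g ai/ha) or water. Seven days later each plant is graded by its proportion of bleached leaf area.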

Molecule | Classification and statistics of pesticide damage grade Grade 0 (topramezone 25 g ai/ha (1x)) | Classification and statistics of pesticide damage grade Grade 1 (topramezone 25 g ai/ha (1x)) | Classification and statistics of pesticide damage grade Grade 2 (topramezone 25 g ai/ha (1x)) | Classification and statistics of pesticide damage grade Grade 3 (topramezone 25 g ai/ha (1x)) | Classification and statistics of pesticide damage grade Grade 0 (topramezone 100 g ai/ha (4x)) | Classification and statistics of pesticide damage grade Grade 1 (topramezone 100 g ai/ha (4x)) | Classification and statistics of pesticide damage grade Grade 2 (topramezone 100 g ai/ha (4x)) | Classification and statistics of pesticide damage grade Grade 3 (topramezone 100 g ai/ha (4x)) | Scores (topramezone 25 g ai/ha (1x)) | Scores (topramezone 100 g ai/ha (4x)) | Resistance evaluation (topramezone 25 g ai/ha (1x)) | Resistance evaluation (topramezone 100 g ai/ha (4x))
N3HPPD-02: native Burkholderia sp. N3 HPPD, SEQ ID NO: 159 (protein, N3HPPD Amino Acid Sequence (Burkholderia)) MQIPNWENPVGTDGFEFIEYTAPDPKALGQLFERMGFTAIARHRHKDVTVYRQGDINFIINAEPHSFAQRFARLHGPSICAIAFRVQDAAKAYQHALELGAWGFDNKTGPMELNIPAIKGIGDSLIYFVDRWRGKNGAQPGAIGDISIYDVDFEPIAGANPNPAGHGLTYIDHLTHNVHRGRMQEWAEFYERLFNFREVRYFDIEGKVTGVKSKAMTSPCGKIRIPINEEGSDTAGQIQEYLDAYHGEGIQHIALGTNDIYGAVDGLRGKEVKLLDTIDTYYELVDRRVPDHGESLDELKKRKILIDGARDDLLLQIFTENQIGPIFFEIIQRKGNQGFGEGNFKALFESIELDQIRRGVVQDKA | 0 | 6 | 8 | 2 | 0 | 0 | 0 | 16 | 58 | 100 | poorly resistant (poorly resistant plants (scores 34-67)) | non-resistant (non-resistant plants (scores 68-100))
N3HPPDm-F372A-02: Burkholderia sp. N3 HPPD mutant F372A, SEQ ID NO: 162 (protein, N3HPPDm-F372A Amino Acid Sequence) MQIPNWENPVGTDGFEFIEYTAPDPKALGQLFERMGFTAIARHRHKDVTVYRQGDINFIINAEPHSFAQRFARLHGPSICAIAFRVQDAAKAYQHALELGAWGFDNKTGPMELNIPAIKGIGDSLIYFVDRWRGKNGAQPGAIGDISIYDVDFEPIAGANPNPAGHGLTYIDHLTHNVHRGRMQEWAEFYERLFNFREVRYFDIEGKVTGVKSKAMTSPCGKIRIPINEEGSDTAGQIQEYLDAYHGEGIQHIALGTNDIYGAVDGLRGKEVKLLDTIDTYYELVDRRVPDHGESLDELKKRKILIDGARDDLLLQIATENQIGPIFFEIIQRKGNQGFGEGNFKALFESIELDQIRRGVVQDKA | 16 | 0 | 0 | 0 | 12 | 4 | 0 | 0 | 0 | 8 | highly resistant (highly resistant plants (scores 0-15)) | highly resistant (highly resistant plants (scores 0-15))
